# From patent US20100317830A1, “BACE455, AN ALTERNATIVE SPLICE VARIANT OF THE HUMAN BETA-SECRETASE” (EXONHIT THERAPEUTICS SA, priority 2003, published 2010)
# Structures can show the parent of a compound that is named as a salt. Square brackets hold non-standard residues; d marks the D form. Peptide text beside a SMILES is read from it. * marks the point of attachment. Sta = CC(C)C[C@H](N)[C@@H](O)CC(=O)O; Isovaleryl = CC(C)CC(=O)*
# Experiments:
# [1] = system: endogenously expressed APP in SH-SY5Y cells; assay: Aβ1-40 double antibody sandwich ELISA on conditioned medium of transfected SH-SY5Y cells; type: cell-based, human; conditions: Gleevec treatment of BACE455 cells
# Procedure: Cells were harvested 3 days after plating and processed for Western Blotting experiments as described above.
# Cell culture supernatants harvested 72 hours after plating were analyzed in a standard double antibody isoform-specific Aβ1-40 ELISA (BioSource International) as follows. […] The detecting antibody is specific for Abeta 1-40 and the conjugated secondary antibody is an anti-rabbit IgG conjugated to horseradish peroxydase. Synthetic human Aβ1-40 standard peptides are serially diluted in the supplied sample diluent for the generation of standard curves.
# Human Abeta 1-40 standards were added after washing the plate, as well as 100 μl/well of sample, e.g., conditioned medium of transfected cells. The plate was incubated at 4[deg.] C. overnight. The next day, after washing the plate four times, 100 μl/well rabbit detection antibody was added and incubated for 2 hours on an orbital plate shaker at 20 degree C. […] 100 μl/well stop solution was added and absorbance of each well was read at 450 nm within two hours, with a solution of 100 μl each of chromogen and stop solution as the blank. […] The samples with absorbance values falling within the standard curve were extrapolated (by comparison to the values obtained for the A-β40 and A-β42 standard peptides analyzed on the same plate) from the standard curves and expressed in pg/ml culture medium.
# [2] = system: endogenously expressed APP isoforms in SH-SY5Y cells; assay: Western blot of C99 fragment generation in transfected SH-SY5Y cells; type: cell-based, human; conditions: BACE455 SH-SY5Y cells
# Procedure: SH-SY5Y cells for transfection were grown to 80% confluence in Dulbecco's modified Eagle's medium (DMEM) with 10% fetal bovine serum. Transfections were performed using LipofectAmine Plus (Gibco-BRL) with […] per 10*10<6>cells. Three days posttransfection, cells were passaged into medium containing G418 at a concentration of 400 μg/ml. After twenty days growth in selective medium, individual clones were selected and plated into each well of one 96 well plate containing growth medium plus G418. Clones were expanded from the 96 well plate to a 24 well plate and then to a 6 well plate. Clones which had lost initial neuronal-like morphology were not amplified. BACE455 or BACE501 expression in selected clones was assayed by Western Blotting and immunohistochemical analysis using Cterminal-specific antibody.
# Cells were harvested 3 days after plating. Cells were washed twice with PBS and lysed in 1 ml CellLytic solution (Sigma) plus protease inhibitors cocktail (Roche Diagnostics) for 15 min. […] Following electrotransfer of the separated polypeptides to PVDF membranes, APP and C99 proteolytic fragment were detected with C-terminal-specific rabbit anti-APP antibody (Serotec, UK) at 1/500 in PBS-Tween 20 0.1%, and the antibody-antigen complexes were visualized using alkaline phosphatase conjugated goat anti-rabbit antibodies (1/5000). […]
# [3] = biological target: T1, BACE501 (Homo sapiens, UniProt P56817); assay: beta-secretase fluorogenic assay (Substrate V) with membrane extracts of HEK293-BACE501 cells plus protease inhibitors; type: biochemical; conditions: for inhibition at 100 µM / Percentage of inhibition by various inhibitors (mean percentage of cleavage inhibition), BACE501: BACE501 cell extract; for inhibition at 100 µM / effect on substrate cleavage activity of BACE501 extracts (in words) / Percentage of inhibition by various inhibitors (mean percentage of cleavage inhibition), BACE501: inhibitor 100 μM; for inhibition at 100 µM: read-out: Percentage of inhibition by various inhibitors (mean percentage of cleavage inhibition), BACE501; for BACE501 activity (percentage of activity +−SEM): compared to mock transfected control; for % Inhibition of BACE activity by Inhibitor III: BACE501, 100 μM
# T1 construct: full length cDNA of BACE501 and BACE455 in TOPO TA vector were subcloned into pcDNA3; expressed in transfected cells; Triton X100 membrane extract
# T1 sequence (P56817 46-501): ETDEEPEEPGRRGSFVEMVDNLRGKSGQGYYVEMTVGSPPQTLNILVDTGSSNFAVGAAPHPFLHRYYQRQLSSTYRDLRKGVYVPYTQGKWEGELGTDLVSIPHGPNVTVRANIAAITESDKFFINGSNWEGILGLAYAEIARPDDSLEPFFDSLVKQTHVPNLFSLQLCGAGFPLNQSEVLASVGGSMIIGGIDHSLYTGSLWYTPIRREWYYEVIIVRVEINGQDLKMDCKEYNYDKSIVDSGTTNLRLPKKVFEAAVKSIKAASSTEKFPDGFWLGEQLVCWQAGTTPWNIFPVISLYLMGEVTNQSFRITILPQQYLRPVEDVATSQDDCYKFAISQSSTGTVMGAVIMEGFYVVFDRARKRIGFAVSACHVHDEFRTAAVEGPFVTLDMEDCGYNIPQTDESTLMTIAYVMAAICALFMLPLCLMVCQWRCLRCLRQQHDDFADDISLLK
# Procedure: (§1) Cells were harvested and centrifuged at 1,500 rpm for 5 minutes to remove the medium. The cell pellets were washed once with PBS. To further compare BACE455 activity with that of BACE501, an in vitro assay was developed based on quenched fluorogenic substrate (Substrate V, Calbiochem) containing the Swedish mutation KM->NL in APP. Sequence of the peptide was: MCA-[…](DNP)-CONH2 (SEQ ID NO: 32), containing the Swedish APP mutation (in boldface), γ-amino-4-methyl coumarin (MCA) as the fluorophore and dinotrophenol (DNP) as the quencher. When cell lysates of BACE455 and BACE501 expressing cells are incubated with the fluorogenic Substrate V, upon cleavage by the protease, the fluorophore is separated from the quenching group, restoring the full fluorescence yield of the donor. (Ermolief et al., Biochemistry 39: 12450-12456 (2000); Ellerby et al. J. Neurosci. 17: 6165-6178 (1997); Capel et al., J Biol. Chem. 277: 5637-43 (2002)).
# (§2) Mock transfected HEK293 and HEK293-BACE455 and -BACE501cells were harvested by scraping in ice-cold 20 mM Tris/150 mM NaCl, pH 7.5 plus Complete Protease Inhibitor Cocktail (Roche Diagnostics). Cell were lysed by repeated freeze-thawing and a postnuclear fraction was generated after centrifugation at 500 g for 10 min, Pellets were resuspended in membrane extraction buffer (20 mM MES/1% Triton X100) containing protease inhibitor cocktail and incubated on ice for 30 minutes. The assay was carried out in black 96 well plates (ATGC) in a volume of 200 μl of the membrane preparation diluted in reaction buffer (25 mM MES/25 mM Sodium Acetate/25 mM Tris, pH 4.4) containing 15 μM peptide Substrate V. These components were equilibrated to 37[deg.] C. for various times and the reaction initiated by addition of substrate. Excitation was performed at 320 nm and the reaction kinetics were monitored by measuring the fluorescence emission at 420 nm. To test the effect of pH, lysed cells were resuspended in 25 mM MES/25 mM Sodium Acetate/25 mM Tris adjusted at pH values ranging from 4.4 to 8 and then incubations were performed as above. Controls included purified recombinant human BACE501 protein (R&D Systems), or substrate alone and background fluorescence is subtracted to recorded BACE isoforms activities.
# (§3) Protease inhibitors were added to 100 μl reaction buffer (25 mM MES/25 mM Sodium Acetate/25 mM Tris, pH 4.4) at a final concentration of 100 μM. […] Membrane preparations were obtained as in Example 4 and incubated with the inhibitors for 10 min at room temperature. Reaction was then started by adding 100 μl of reaction buffer containing the substrate (15 μM final concentration) and monitored as described in Example 4. For the dose-response experiment of FIG. 3, Inhibitor III was assayed at various concentrations ranging from 100 μM to 100 nM
# (§4) Membrane preparations were obtained as in Example 4 and incubated in assay buffer (25 mM MES/25 mM Sodium Acetate/25 mM Tris) adjusted to final pH ranging from 4.4 to 8, in the presence or absence of BACE inhibitor III (100 μM final concentration). Reaction was started by adding 100 μl of reaction buffer (pH ranging from 4.4 to 8) containing the substrate (15 μM final concentration) and monitored as described in Example 4. We determined in these conditions the percentage of inhibition of BACE by Inhibitor III.
# [4] = biological target: T2, BACE455 (Homo sapiens, UniProt P56817, DEL190-235); assay: beta-secretase fluorogenic assay (Substrate V) with membrane extracts of HEK293-BACE455 cells plus protease inhibitors; type: biochemical; conditions: for inhibition at 100 µM / Percentage of BACE455 inhibition by various inhibitors (mean percentage of cleavage inhibition): BACE455 cell extract; for inhibition at 100 µM / effect on substrate cleavage activity of BACE455 extracts (in words) / Percentage of BACE455 inhibition by various inhibitors (mean percentage of cleavage inhibition): inhibitor 100 μM; for inhibition at 100 µM: read-out: Percentage of BACE455 inhibition by various inhibitors (mean percentage of cleavage inhibition); for BACE455 activity (percentage of activity +−SEM): compared to mock transfected control; for % Inhibition of BACE activity by Inhibitor III: BACE455, 100 μM
# T2 construct: full length cDNA of BACE501 and BACE455 in TOPO TA vector were subcloned into pcDNA3; expressed in transfected cells; Triton X100 membrane extract
# T2 sequence (P56817 with tags, fused parts or gaps DEL190-235): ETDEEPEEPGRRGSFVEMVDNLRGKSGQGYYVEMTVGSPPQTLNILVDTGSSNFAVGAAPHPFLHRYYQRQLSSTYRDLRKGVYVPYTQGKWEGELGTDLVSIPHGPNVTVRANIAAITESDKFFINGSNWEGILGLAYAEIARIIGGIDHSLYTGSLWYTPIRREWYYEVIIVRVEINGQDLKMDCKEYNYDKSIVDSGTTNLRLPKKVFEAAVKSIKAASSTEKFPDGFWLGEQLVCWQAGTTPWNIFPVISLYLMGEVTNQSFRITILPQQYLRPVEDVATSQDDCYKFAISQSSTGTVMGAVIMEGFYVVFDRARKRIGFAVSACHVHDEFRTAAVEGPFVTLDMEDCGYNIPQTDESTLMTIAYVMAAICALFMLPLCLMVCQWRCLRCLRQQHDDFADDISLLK
# Procedure: as §1, §2, §3, §4
molecule,measurement,setting,value
"Cc1ccc(NC(=O)c2ccc(CN3CCN(C)CC3)cc2)cc1Nc1nccc(-c2cccnc2)n1 [Gleevec, imatinib mesylate]",Aβ1-40 release (in words),[1],strongly reduced
same,generation of C99 peptide,[2]; 10 μM for the last 24 hours,strongly reduced
CC(C)C[C@H](NC(=O)[C@@H](NC(=O)N[C@@H](Cc1ccccc1)C(=O)O)[C@@H]1CCN=C(N)N1)C(=O)N[C@H](C=O)Cc1ccccc1 [Chymostatin],inhibition at 100 µM,[3]; pH 4.4,20.4%
same,inhibition at 100 µM,[4]; pH 4.4,25.9%
"C[C@H]1CCC/C=C/[C@@H]2C[C@H](O)C[C@H]2[C@H](O)/C=C/C(=O)O1 [BFA, brefeldin A]",generation of C99,[2]; 10 μg/ml during the last 8 hours,reduced generation of C99
CC(C)CC(=O)N[C@H](C(=O)N[C@H](C(=O)N[C@@H](CC(C)C)[C@@H](O)CC(=O)N[C@@H](C)C(=O)N[C@@H](CC(C)C)[C@@H](O)CC(=O)O)C(C)C)C(C)C [Pepstatin A] (Isovaleryl-VV[Sta]A[Sta]-OH),inhibition at 100 µM,[3]; pH 4.4,13.1%
same,effect on substrate cleavage activity of BACE501 extracts (in words),[3],very weakly sensitive
same,inhibition at 100 µM,[4]; pH 4.4,14.4%
same,effect on substrate cleavage activity of BACE455 extracts (in words),[4],very weakly sensitive
"CC(C)CCNC(=O)[C@H](CC(C)C)NC(=O)[C@H]1O[C@@H]1C(=O)O [E-64c, E64c]","Percentage of inhibition by various inhibitors (mean percentage of cleavage inhibition), BACE501",[3]; pH 4.4,13.14%
same,Percentage of BACE455 inhibition by various inhibitors (mean percentage of cleavage inhibition),[4]; pH 4.4,12.23%
CC(=O)N[C@@H](CC(C)C)C(=O)N[C@@H](CC(C)C)C(=O)N[C@H](C=O)CCCNC(=N)N [Leupeptin],inhibition at 100 µM,[3]; pH 4.4,8.03%
same,inhibition at 100 µM,[4]; pH 4.4,17.3%
H-Glu-Val-Asn-Statine-Val-Ala-Glu-Phe-NH2 [Inhibitor III],BACE501 activity (percentage of activity +−SEM),[3]; 1 μM inhibitor,85.15+−2.93%
same,BACE501 activity (percentage of activity +−SEM),[3]; 10 μM inhibitor,57.6+−3.12%
same,% Inhibition of BACE activity by Inhibitor III,[3]; pH 4.4,117.54%
same,% Inhibition of BACE activity by Inhibitor III,[3]; pH 6.0,13.23%
same,% Inhibition of BACE activity by Inhibitor III,[3]; pH 8.0,17.63%
same,"Percentage of inhibition by various inhibitors (mean percentage of cleavage inhibition), BACE501",[3]; pH 4.4,117.54%
same,effect on substrate cleavage activity of BACE501 extracts (in words),[3],completely abolished
same,BACE455 activity (percentage of activity +−SEM),[4]; 1 μM inhibitor,57.52+−9.08%
same,BACE455 activity (percentage of activity +−SEM),[4]; 10 μM inhibitor,36.04+−4.13%
same,% Inhibition of BACE activity by Inhibitor III,[4]; pH 4.4,104.16%
same,% Inhibition of BACE activity by Inhibitor III,[4]; pH 6.0,15.97%
same,% Inhibition of BACE activity by Inhibitor III,[4]; pH 8.0,22.10%
same,Percentage of BACE455 inhibition by various inhibitors (mean percentage of cleavage inhibition),[4]; pH 4.4,104.16%
same,effect on substrate cleavage activity of BACE455 extracts (in words),[4],completely abolished
